In patent US20180022816A1 (Genmab, published 2018):

B1: HuMab 060 (antibody, V domains shown)
VH: EVQLVQSGAEVKKPGESLKISCKGSGYRFTSYWIGWVRQMPGKGLEWMGSIYPGDSYTRNSPSFQGQVTISADKSIATAYLQWNSLKASDTAMYYCARHAGDFYYFDGLDVWGQGTTVTVSS
VL: not shown
B2: HuMab 005 (antibody, human IgG1, V domains shown)
VH: EVQLVQSGAEVKKPGESLKISCKASGYSFHFYWIGWVRQMPGKGLEWMGSIYPGDSDTRYRPSFQGQVTISADKSISTAYLQWTSLKASDTAIYYCARQRGDYYYFYGMDVWGQGTTVTVSS
VL: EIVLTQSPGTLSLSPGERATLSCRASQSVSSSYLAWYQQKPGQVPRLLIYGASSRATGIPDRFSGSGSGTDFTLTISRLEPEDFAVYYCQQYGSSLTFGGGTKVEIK
B3: HuMab 106 (antibody, V domains shown)
VH: EVQLVQSGAEVKKPGESLKISCKGSGYSFTRYWIGWVRQMPGKGLEWMGIIYPGDSDTRYSPSFQGQVTISADKSISTAYLQWSSLKASDTAMYYCARLTGDRGFDYYSGMDVWGQGTTVTVSS
VL: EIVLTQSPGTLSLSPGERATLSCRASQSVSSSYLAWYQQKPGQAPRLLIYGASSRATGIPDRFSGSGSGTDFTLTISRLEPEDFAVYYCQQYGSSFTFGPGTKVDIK
B4: HuMab 111 (antibody, V domains shown)
VH: QVQLVQSGAEVKKPGSSVKVSCKASGGTFSSYGISWVRQAPGPGLEWMGRIIPILGIANYAQKFQGRVTITADKSTNTAYMELSSLRSEDTAVYYCARDQEYSSNWYYWGQGTLVTVSS
VL: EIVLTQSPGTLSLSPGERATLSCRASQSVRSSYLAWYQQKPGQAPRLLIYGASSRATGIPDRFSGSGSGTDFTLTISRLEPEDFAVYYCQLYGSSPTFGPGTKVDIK
B5: HuMab 059 (antibody, V domains shown)
VH: QVQLVQSGAEVKKPGASVRVPCKASGYTFTRYGISWVRQAPGQGLEWMGWISAYNGKTYYAQKLQGRVTMTTDTSTSTAYMELRSLRSDDTAVYYCARSPLLWFEELYFDYWGQGTLVTVSS
VL: EIVLTQSPGTLSLSPGERATLSCRASQSVSSTYLAWYQQKPGQAPRLLIYGASSRATGIPDRFSGSGSGTDFTLTISRLEPEDFAVYYCQQYGTSLFTFGPGTKVDIK

These binders were tested against T1, human epidermal growth factor receptor 2 (HER2), membrane-bound on tumor cells (AU565, A431, SK-BR-3) (human, UniProt P04626 23-1255) (assay: cell-based or functional assay).

Binder	EC50 of killing, A431 cells, anti-kappa-ETA′-conjugated antibody
B1	~0.01 µg/mL
B2	~0.0101 µg/mL

Biological target: T1, human epidermal growth factor receptor …
Test: cell-based or functional assay
Remark: another data set of the same source

Binder	% cells killed, AU565 cells, anti-kappa-ETA′-conjugated antibody	EC50 of killing, AU565 cells, anti-kappa-ETA′-conjugated antibody
B1	64.3%	0.0794 µg/mL
B3	59.1%	0.108 µg/mL
B4	72%	0.0242 µg/mL
B2	69.7%	0.0151 µg/mL
B5	67%	0.0677 µg/mL

Biological target: T1, human epidermal growth factor receptor …
Test: cell-based or functional assay
Remark: another data set of the same source

Binder	EC50, fab-CypHer5E internalization assay, AU565 cells	Maximal MFI, fab-CypHer5E internalization assay, AU565 cells
B1	0.0362 µg/mL	68200 MFI
B3	0.0686 µg/mL	57400 MFI
B4	0.0352 µg/mL	81700 MFI
B2	0.0214 µg/mL	95100 MFI
B5	0.0148 µg/mL	77100 MFI
